Measured values reported in US20150175665A1 (IPSEN PHARMA S A S, published 2015).
Residue numbers refer to the chain shown, from its start. Values belong to the binder of their own block, whether it stands above or below them.

Target: T1, human recombinant GIP receptor (human, UniProt P48546 22-466)
T1 construct: whole, on cells; Assayed as washed membranes of CHO-K1 cells expressing the receptor; also called hGIP receptor
T1 sequence (looked up): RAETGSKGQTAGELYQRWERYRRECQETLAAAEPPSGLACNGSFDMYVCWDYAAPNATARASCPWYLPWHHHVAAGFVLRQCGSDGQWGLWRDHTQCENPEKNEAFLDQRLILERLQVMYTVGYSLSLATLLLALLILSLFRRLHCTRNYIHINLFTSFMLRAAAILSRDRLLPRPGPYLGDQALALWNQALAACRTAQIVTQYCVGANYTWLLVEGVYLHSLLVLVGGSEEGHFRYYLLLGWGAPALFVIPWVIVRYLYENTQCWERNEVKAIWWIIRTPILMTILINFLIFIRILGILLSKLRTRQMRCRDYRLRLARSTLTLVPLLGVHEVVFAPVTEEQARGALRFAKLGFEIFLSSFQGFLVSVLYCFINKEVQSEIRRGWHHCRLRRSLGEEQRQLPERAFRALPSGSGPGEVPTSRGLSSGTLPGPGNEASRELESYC
Test: displacement of [125I]GIP, membranes of CHO-K1 cells expressing human GIP receptor
Experimental: Membranes for in vitro receptor binding assays were prepared by homogenizing the CHO—K1 clonal cells expressing the human recombinant GIP receptor, with a Brinkman Polytron (setting 6, 15 sec), in ice-cold 50 mM Tris-HCl and then subjected to two centrifugations at 39,000 g for 10 minutes, with a resuspension in fresh buffer in between. For the assay, aliquots of the washed membrane preparations were incubated (100 minutes at 25° C. with 0.05 nM [¹²⁵1]GIP (2200 Ci/mmol) in 50 mM Tris-HCl, 0.1 mg/ml bacitracin, and 0.1% BSA. The final assay volume was 0.5 ml. The incubations were terminated by rapid filtration through GF/C filters (pre-soaked in 0.5% polyethylenimine) using a Brandel filtration manifold. Each tube and filter were then washed three times with 5-ml aliquots of ice-cold buffer.
Specific binding was defined as the total radioligand bound minus that bound in the presence of 1000 nM GIP.

B1: (3NO2-Tyr^1, Aib^2, A5c^11, 41)hGIP(1-42)-OH (peptide)
peptide: YXEGTFISDYXIAMDKIHQQDFVNWLLAQKGKKNDWKHNIXQ
modifications: 3NO2-Tyr at 1; Aib at 2; A5c at 11 and 41
Ki: 11.2 nM

B2: (hTyr^1, Aib^2, A5c^11, Nle^14)hGIP(1-42)-OH (peptide)
peptide: B1 peptide with Y1X, M14X, X41T
modifications: hTyr at 1; Aib at 2; A5c at 11; Nle at 14
Ki: 77.3 nM

B3: (4-Pal^1, Aib^2, A5c^11, 41)hGIP(1-42)-OH (peptide)
peptide: B1 peptide with Y1X
modifications: 4-Pal at 1; Aib at 2; A5c at 11 and 41
Ki: 8.14 nM

B4: (3,4,5F-Phe^1, Aib^2, A5c^11, Nle^14)hGIP(1-42)-OH (peptide)
peptide: B1 peptide with Y1F, M14X, X41T
modifications: 3,4,5F-Phe at 1; Aib at 2; A5c at 11; Nle at 14
Ki: 31.1 nM

B7: (3OH-Tyr^1, Aib^2, A5c^11, 41)hGIP(1-42)-OH (peptide)
peptide: B1 peptide
modifications: 3OH-Tyr at 1; Aib at 2; A5c at 11 and 41
Ki: 6.69 nM

B9: (3,4F-Phe^1, Aib^2, A5c^11, Nle^14)hGIP(1-42)-OH (peptide)
peptide: B1 peptide with Y1F, M14X, X41T
modifications: 3,4F-Phe at 1; Aib at 2; A5c at 11; Nle at 14
Ki: 15.7 nM

B10: (4NH2-Phe^1, Aib^2, A5c^11, Nle^14)hGIP(1-42)-OH (peptide)
peptide: B1 peptide with Y1F, M14X, X41T
modifications: 4NH2-Phe at 1; Aib at 2; A5c at 11; Nle at 14
Ki: 3.4 nM

B13: (3-Pal^1, Aib^2, A5c^11, 41)hGIP(1-42)-OH (peptide)
peptide: B1 peptide with Y1X
modifications: 3-Pal at 1; Aib at 2; A5c at 11 and 41
Ki: 9.75 nM

B15: (3,5F-Phe^1, Aib^2, A5c^11, Nle^14)hGIP(1-42)-OH (peptide)
peptide: B1 peptide with Y1F, M14X, X41T
modifications: 3,5F-Phe at 1; Aib at 2; A5c at 11; Nle at 14
Ki: 26 nM

B17: (4NH2CH2-Phe^1, Aib^2, A5c^11, Nle^14)hGIP(1-42)-OH (peptide)
peptide: B1 peptide with Y1F, M14X, X41T
modifications: 4NH2CH2-Phe at 1; Aib at 2; A5c at 11; Nle at 14
Ki: 95 nM

B18: (3OH-Phe^1, Aib^2, A5c^11, 41)hGIP(1-42)-OH (peptide)
peptide: B1 peptide with Y1F
modifications: 3OH-Phe at 1; Aib at 2; A5c at 11 and 41
Ki: 7.52 nM

B20: (3,5I-Tyr^1, Aib^2, A5c^11, Nle^14)hGIP(1-42)-OH (peptide)
peptide: B1 peptide with M14X, X41T
modifications: 3,5I-Tyr at 1; Aib at 2; A5c at 11; Nle at 14
Ki: 77.9 nM

B22: (3,5Br-Tyr^1, Aib^2, A5c^11, Nle^14)hGIP(1-42)-OH (peptide)
peptide: B1 peptide with M14X, X41T
modifications: 3,5Br-Tyr at 1; Aib at 2; A5c at 11; Nle at 14
Ki: 21.8 nM

B25: (4CN-Phe^1, Aib^2, A5c^11, 41)hGIP(1-42)-OH (peptide)
peptide: B1 peptide with Y1F
modifications: 4CN-Phe at 1; Aib at 2; A5c at 11 and 41
Ki: 14.4 nM

Results, then the binder that gave them:

Ki: 0.73 nM
B5: [Tyr(Ac)^1, Aib^2, A5c^11, 41]hGIP(1-42)-OH (peptide)
peptide: B1 peptide
modifications: Tyr(Ac) at 1; Aib at 2; A5c at 11 and 41

Ki: 3.28 nM
B6: (Taz^1, Aib^2, A5c^11, 41)hGIP(1-42)-OH (peptide)
peptide: B1 peptide with Y1X
modifications: Taz at 1; Aib at 2; A5c at 11 and 41

Ki: 1.03 nM
B8: (2,6Me-Tyr^1, Aib^2, A5c^11, 41)hGIP(1-42)-OH (peptide)
peptide: B1 peptide
modifications: 2,6Me-Tyr at 1; Aib at 2; A5c at 11 and 41

Ki: 2.7 nM
B11: (3F-Phe^1, Aib^2, A5c^11, Nle^14)hGIP(1-42)-OH (peptide)
peptide: B1 peptide with Y1F, M14X, X41T
modifications: 3F-Phe at 1; Aib at 2; A5c at 11; Nle at 14

Ki: 4.5 nM
B12: [Tyr(Me)^1, Aib^2, A5c^11, 41]hGIP(1-42)-OH (peptide)
peptide: B1 peptide
modifications: Tyr(Me) at 1; Aib at 2; A5c at 11 and 41

Ki: 1.24 nM
B14: (3MeO-Tyr^1, Aib^2, A5c^11, 41)hGIP(1-42)-OH (peptide)
peptide: B1 peptide
modifications: 3MeO-Tyr at 1; Aib at 2; A5c at 11 and 41

Ki: 7.05 nM
B16: (3Thi^1, Aib^2, A5c^11, 41)hGIP(1-42)-OH (peptide)
peptide: B1 peptide with Y1X
modifications: 3Thi at 1; Aib at 2; A5c at 11 and 41

Ki: 4.26 nM
B19: (3,5Br-Tyr^1, Aib^2, 13, Nle^14)hGIP(1-42)-OH (peptide)
peptide: B1 peptide with X11S, A13X, M14X, X41T
modifications: 3,5Br-Tyr at 1; Aib at 2 and 13; Nle at 14

Ki: 5.03 nM
B21: (3I-Tyr^1, Aib^2, A5c^11, Nle^14)hGIP(1-42)-OH (peptide)
peptide: B1 peptide with M14X, X41T
modifications: 3I-Tyr at 1; Aib at 2; A5c at 11; Nle at 14

Ki: 5.43 nM
B23: (3F-Phe^1, Aib^2, A5c^11, 41)hGIP(1-42)-OH (peptide)
peptide: B1 peptide with Y1F
modifications: 3F-Phe at 1; Aib at 2; A5c at 11 and 41

Ki: 5.82 nM
B24: (4F-Phe^1, Aib^2, A5c^11, 41)hGIP(1-42)-OH (peptide)
peptide: B1 peptide with Y1F
modifications: 4F-Phe at 1; Aib at 2; A5c at 11 and 41

Ki: 0.42 nM
B26: (3Cl-Tyr^1, Aib^2, A5c^11, Nle^14)hGIP(1-42)-OH (peptide)
peptide: B1 peptide with M14X, X41T
modifications: 3Cl-Tyr at 1; Aib at 2; A5c at 11; Nle at 14

Ki: 0.6 nM
B27: (3Br-Tyr^1, Aib^2, A5c^11, Nle^14)hGIP(1-42)-OH (peptide)
peptide: B1 peptide with M14X, X41T
modifications: 3Br-Tyr at 1; Aib at 2; A5c at 11; Nle at 14

Ki: 3.18 nM
B28: (His^1, Aib^2, A5c^11, Nle^14)hGIP(1-42)-OH (peptide)
peptide: B1 peptide with Y1H, M14X, X41T
modifications: Aib at 2; A5c at 11; Nle at 14
